{"source": "the RNAGym collection of RNA variant scans (doi:10.7554/elife.80360)", "parents": {"B1": {"name": "Hairpin Ribozyme (parent)", "chain": "GUCCUCUUUCACGUGCGCGUGAAAGAGAGAAGUGAACCAGAGAAACACACGUUGUGGUAUAUUACCUGGUA"}}, "data": [{"variants_of": "B1", "assay": "self-cleavage, relative activity (ratio to wild type); higher = more cleavage; co-transcriptional", "values": [{"variant": "C10G U33A", "self-cleavage": 0.138}, {"variant": "C10G G32A", "self-cleavage": 0.163}, {"variant": "C10G G32C", "self-cleavage": 0.207}, {"variant": "C10A U14C", "self-cleavage": 0.888}, {"variant": "C10U A44U", "self-cleavage": 0.187}, {"variant": "C10U A44G", "self-cleavage": 0.117}, {"variant": "C10G G34A", "self-cleavage": 0.978}, {"variant": "C10G G13U", "self-cleavage": 0.528}, {"variant": "C10G A47G", "self-cleavage": 0.177}, {"variant": "C10G A47U", "self-cleavage": 0.175}, {"variant": "C10U U70C", "self-cleavage": 0.637}, {"variant": "C10U U70A", "self-cleavage": 0.704}, {"variant": "C10G A45C", "self-cleavage": 0.114}, {"variant": "C10G A45U", "self-cleavage": 0.136}, {"variant": "C10G A45G", "self-cleavage": 0.118}, {"variant": "C10U A39G", "self-cleavage": 0.242}, {"variant": "C10U U33C", "self-cleavage": 0.0734}, {"variant": "C10U U33G", "self-cleavage": 0.196}, {"variant": "C10G C50G", "self-cleavage": 0.142}, {"variant": "C10G C50U", "self-cleavage": 0.344}, {"variant": "C10G G57U", "self-cleavage": 0.243}, {"variant": "C10G A43C", "self-cleavage": 0.128}, {"variant": "C10G A43U", "self-cleavage": 0.157}, {"variant": "C10G A61G", "self-cleavage": 0.233}, {"variant": "C10U G51C", "self-cleavage": 0.783}, {"variant": "C10A G13C", "self-cleavage": 0.411}, {"variant": "C10A G13A", "self-cleavage": 0.501}, {"variant": "C10A G68U", "self-cleavage": 0.201}, {"variant": "C10A G51U", "self-cleavage": 0.678}, {"variant": "C10G G54U", "self-cleavage": 0.471}, {"variant": "C10G G69C", "self-cleavage": 0.23}, {"variant": "C10G U20A", "self-cleavage": 0.484}, {"variant": "C10U A35U", "self-cleavage": 0.568}, {"variant": "C10U A35G", "self-cleavage": 0.689}, {"variant": "C10A U53A", "self-cleavage": 0.678}, {"variant": "C10A U53C", "self-cleavage": 0.888}, {"variant": "C10G A23G", "self-cleavage": 0.419}, {"variant": "C10U G34U", "self-cleavage": 1.09}, {"variant": "C10G C46G", "self-cleavage": 0.162}, {"variant": "C10U A22G", "self-cleavage": 0.635}, {"variant": "C10U A22U", "self-cleavage": 0.373}, {"variant": "C10G", "self-cleavage": 0.737}, {"variant": "C10U", "self-cleavage": 0.775}, {"variant": "A11C A28G", "self-cleavage": 0.951}, {"variant": "C10U U20C", "self-cleavage": 0.722}, {"variant": "C10G C66A", "self-cleavage": 0.0906}, {"variant": "C10G G19A", "self-cleavage": 0.64}, {"variant": "C10G G19U", "self-cleavage": 0.507}, {"variant": "C10G C38A", "self-cleavage": 0.168}, {"variant": "C10G G15C", "self-cleavage": 0.962}, {"variant": "C10U U53C", "self-cleavage": 0.708}, {"variant": "C10G A11G", "self-cleavage": 0.655}, {"variant": "C10U A59U", "self-cleavage": 0.124}, {"variant": "C10G A64U", "self-cleavage": 0.199}, {"variant": "C10G A64G", "self-cleavage": 0.397}, {"variant": "C10A C37A", "self-cleavage": 0.271}, {"variant": "A11C A22U", "self-cleavage": 0.554}, {"variant": "C10G U53G", "self-cleavage": 0.632}, {"variant": "C10U G29A", "self-cleavage": 0.158}, {"variant": "C10G A36C", "self-cleavage": 0.498}, {"variant": "C10U A43U", "self-cleavage": 0.0631}, {"variant": "C10G C65U", "self-cleavage": 0.307}, {"variant": "C10A U67G", "self-cleavage": 0.171}, {"variant": "C10A U67C", "self-cleavage": 0.188}, {"variant": "C10U G57U", "self-cleavage": 0.239}, {"variant": "C10U G57A", "self-cleavage": 0.249}, {"variant": "C10U U62G", "self-cleavage": 0.0799}, {"variant": "C10G U60G", "self-cleavage": 0.442}, {"variant": "C10U A23C", "self-cleavage": 0.637}, {"variant": "C10U A23U", "self-cleavage": 0.652}, {"variant": "C10U A23G", "self-cleavage": 0.551}, {"variant": "C10G U55C", "self-cleavage": 0.16}, {"variant": "C10G G40A", "self-cleavage": 0.194}, {"variant": "C10G G40U", "self-cleavage": 0.161}, {"variant": "A11C A23G", "self-cleavage": 0.642}, {"variant": "A11C A23U", "self-cleavage": 0.6}, {"variant": "A11C A23C", "self-cleavage": 0.622}, {"variant": "C10A C50U", "self-cleavage": 0.349}, {"variant": "C10U C48U", "self-cleavage": 0.209}, {"variant": "C10A U62A", "self-cleavage": 0.238}, {"variant": "C10G G25C", "self-cleavage": 0.358}, {"variant": "C10G C12G", "self-cleavage": 0.477}, {"variant": "C10G C12U", "self-cleavage": 0.503}]}]}
